According to doi:10.1101/764241v3:

Substrate: O=c1ccn([C@@H]2O[C@H](COP(=O)(O)OP(=O)(O)O[C@H]3O[C@H](CO)[C@H](O)[C@H](O)[C@H]3O)[C@@H](O)[C@H]2O)c(=O)[nH]1
Assay: [3H]Gal transfer, Sep-Pak C18 scintillation counting
Format: biochemical, Globisporangium ultimum
Settings: donor, maltose-pNP acceptor, 2 mM MnCl2, pH 7.0, 37°C

B1: PuGat1 (Globisporangium ultimum DAOM BR144) (protein)
chain: MTVGTRRAAYATLITSDAYVMGVEALVYSLFKARVAFPLVVLHSSQVTQPTVAKLTRFCAPFQSSTWRISFRSVPDIGIPDEVTDRSTVHVPGWVNSGYTKLHIFAMDDFEQIVYIDADAIVLQNVDELFDRSTSFAAAPDVFPPDRFNAGVLVIRPNKQLFADLLAKAKELKSYDGGDTGFLNAFFPKWFESDAASRLPFGYNAQRTMYWLVNGKNPGYWNAVQPLKILHYSSNPKPWEDPSRKGDLEILWWQMYTESRCMSFLG
B1 showed a Km of 15 µM.
